For assay [1], the target named is T1, Bak (expressed in yeast, used as lysate) (Homo sapiens (Human), UniProt Q16611 1-211, limits assumed).
T1 construct: also called full-length Bak
T1 sequence: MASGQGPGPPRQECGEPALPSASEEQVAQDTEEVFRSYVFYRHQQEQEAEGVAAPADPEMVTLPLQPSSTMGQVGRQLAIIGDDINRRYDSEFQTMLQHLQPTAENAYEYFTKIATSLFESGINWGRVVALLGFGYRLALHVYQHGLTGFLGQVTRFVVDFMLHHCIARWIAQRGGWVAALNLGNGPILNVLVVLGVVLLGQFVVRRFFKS
The assay is described as follows: GST fusion on glutathione-Sepharose column, yeast lysate expressing Bak, Western blot.

The target of assay [2] is T2, BakΔ3 (N-terminal deletion mutant of Bak, amino acids 96-210 of full-length Bak) (Homo sapiens (Human), UniProt Q16611 96-211).
T2 construct: Produced in Sf9 cells by baculovirus and used as an NP-40 cell extract
T2 sequence: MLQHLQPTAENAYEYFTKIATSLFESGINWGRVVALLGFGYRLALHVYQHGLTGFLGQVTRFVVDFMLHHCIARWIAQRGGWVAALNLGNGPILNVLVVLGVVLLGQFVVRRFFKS
In words: GST pull-down from Sf9 extract, immunoblot with anti-Bak.

Assay [3] deals with Bcl2 expressed as a fusion protein with the binding domain (BD) of GAL4 (yeast, UniProt P04386 1-147; P10415 1-239, limits assumed). The assay is described as follows: yeast two hybrid.
Assay [4] addresses Bax expressed as a fusion protein with the binding domain (BD) of GAL4 (yeast, UniProt P04386 1-147; Q07812 1-192, limits assumed). The assay is described as follows: yeast two hybrid.
In assay [5] the target is T3, Bak expressed as a fusion protein with the binding domain (BD) of GAL4 (yeast, UniProt P04386 1-147).
T3 construct: range 1-147; Yeast two-hybrid bait; also called GAL4-Bak fusion protein
In words: yeast two hybrid (GAL4 AD and BD fusions).

The target of assay [6] is T4, BBP expressed as a fusion protein with the binding domain (BD) of GAL4 (yeast; human, UniProt P04386 1-147).
T4 construct: range 1-147; also called BBP-BD
In words: yeast two hybrid (GAL4 AD and BD fusions).

Where no end group is shown, it is not given here.

B1: gst fusion protein containing BBP-Loop1 (N-terminal 42 amino acid portion of BBP) (other)
chain: MAASSQGNFEGNFESLDLAEFAKKQPWWRKLFGQESGPSAEK
modifications: not fully specified (N-terminus); also: fused to glutathione-S-transferase (GST), not in chain
notes: It was subcloned into pGEX-5X in frame with gst; also called BBP-L1; gst-BBP-L1; not shown: glutathione-S-transferase (gst) as encoded by vector pGEX-5X (Pharmacia)
B1: the binding result in assay [1] is listed as “binds”.

B2: gst fusion protein containing BBP-Loop2 (internal loop of BBP, amino acids 86 through 133) (other)
chain: HTGYIKVDWQRVEKDMKKAKEQLKIRKSNQIPTEVRSKAEEVVSFVKK
modifications: not fully specified (N-terminus); also: fused to glutathione-S-transferase (GST), not in chain
notes: It was subcloned into pGEX-5X in frame with gst; also called BBP-L2; gst-BBP-L2; not shown: glutathione-S-transferase (gst) as encoded by vector pGEX-5X (Pharmacia)
With B2, the values for the binding result in assay [1] and in assay [2] were “binds” and “no binding”, respectively.

B3: gst fusion protein containing full-length BHRF-1 (other)
chain: MAYSTREILLALCIRDSRVHGNGTLHPVLELAARETPLRLSPEDTVVLRYHVLLEEIIERNSETFTETWNRFITHTEHVDLDFNSVFLEIFHRGDPSLGRALAWMAWCMHACRTLCCNQSTPYYVVDLSVRGMLEASEGLDGWIHQQGGWSTLIEDNIPGSRRFSWTLFLAGLTLSLLVICSYLFISRGRH
notes: not shown: glutathione-S-transferase (gst)
For the molecule B3, the binding result in assay [1] is given as “binds”.

B4: BBP expressed as a fusion protein with the activation domain (AD) of GAL4 (other, yeast)
chain: ANFNQSGNIADSSLSFTFTNSSNGPNLITTQTNSQALSQPIASSNVHDNFMNNEITASKIDDGNNSKPLSPGWTDQTAYNAFGITTGMFNTTTMDDVYNYLFDDEDTPPNPKKEMAASSQGNFEGNFESLDLAEFAKKQPWWRKLFGQESGPSAEKYSVATQLFIGGVTGWCTGFIFQKVGKLAATAVGGGFFLLQLANHTGYIKVDWQRVEKDMKKAKEQLKIRKSNQIPTEVRSKAEEVVSFVKKNVLVTGGFFGGFLLGMAS
notes: range 768-881; Yeast two-hybrid prey; also called BBP-AD
Regarding B4, the binding result was “no binding” in assay [3], “no binding” in assay [4], “binds” in assay [5] and “binds” in assay [6].

For the origin of these results see US7316915 (TANOX, dated 2008).
